What was measured:
Test in all cases: cell-based or functional assay
EGFR (h) = EGFR (h) (human (h), UniProt P00533 696-1210, limits assumed)
PKA (h) = PKA (h) (human (h), UniProt P17612 1-351)
ROCK-1 (h) = ROCK-1 (h) (human (h), UniProt Q13464 17-535, limits assumed)
MAPKAP-K3 (h) = MAPKAP-K3 (h) (human (h), UniProt Q16644 1-382, limits assumed)
PKG1β (h) = biological target: T1, PKG1β (h) (human (h), UniProt Q13976-2 1-686)
T1 sequence (looked up): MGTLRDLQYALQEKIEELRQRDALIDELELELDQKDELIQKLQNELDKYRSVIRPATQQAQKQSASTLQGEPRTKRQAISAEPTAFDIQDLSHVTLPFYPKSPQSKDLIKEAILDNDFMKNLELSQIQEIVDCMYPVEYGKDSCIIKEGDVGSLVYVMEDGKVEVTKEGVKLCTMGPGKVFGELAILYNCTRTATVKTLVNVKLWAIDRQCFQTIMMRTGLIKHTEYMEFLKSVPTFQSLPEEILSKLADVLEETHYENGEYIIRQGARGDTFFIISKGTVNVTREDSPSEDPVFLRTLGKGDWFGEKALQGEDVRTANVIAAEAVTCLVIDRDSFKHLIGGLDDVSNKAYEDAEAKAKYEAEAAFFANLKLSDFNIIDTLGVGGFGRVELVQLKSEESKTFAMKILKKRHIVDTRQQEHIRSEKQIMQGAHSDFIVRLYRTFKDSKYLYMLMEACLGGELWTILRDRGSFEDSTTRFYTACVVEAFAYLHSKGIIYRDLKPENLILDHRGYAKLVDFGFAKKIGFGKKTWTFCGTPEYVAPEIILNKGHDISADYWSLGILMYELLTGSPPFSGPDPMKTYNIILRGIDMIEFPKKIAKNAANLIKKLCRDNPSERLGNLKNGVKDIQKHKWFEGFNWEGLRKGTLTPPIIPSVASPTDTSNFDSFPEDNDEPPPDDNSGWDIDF

Src(1-530) (h) = Src(1-530) (h) (human (h), UniProt P12931 1-530)

Chain of MAPKAP-K3 (h) (Q16644 whole entry): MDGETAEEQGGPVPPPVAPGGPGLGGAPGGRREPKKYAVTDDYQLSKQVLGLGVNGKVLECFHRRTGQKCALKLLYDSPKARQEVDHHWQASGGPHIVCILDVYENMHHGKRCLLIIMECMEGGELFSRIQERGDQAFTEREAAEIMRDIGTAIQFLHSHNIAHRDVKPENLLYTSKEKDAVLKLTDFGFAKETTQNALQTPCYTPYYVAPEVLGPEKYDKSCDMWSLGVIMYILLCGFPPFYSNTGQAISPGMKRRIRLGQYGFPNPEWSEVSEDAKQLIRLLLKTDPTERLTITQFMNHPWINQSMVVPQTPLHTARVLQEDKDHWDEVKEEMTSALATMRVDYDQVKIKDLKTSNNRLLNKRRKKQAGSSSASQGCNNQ
Chain of ROCK-1 (h) (Q13464 17-535 limits assumed): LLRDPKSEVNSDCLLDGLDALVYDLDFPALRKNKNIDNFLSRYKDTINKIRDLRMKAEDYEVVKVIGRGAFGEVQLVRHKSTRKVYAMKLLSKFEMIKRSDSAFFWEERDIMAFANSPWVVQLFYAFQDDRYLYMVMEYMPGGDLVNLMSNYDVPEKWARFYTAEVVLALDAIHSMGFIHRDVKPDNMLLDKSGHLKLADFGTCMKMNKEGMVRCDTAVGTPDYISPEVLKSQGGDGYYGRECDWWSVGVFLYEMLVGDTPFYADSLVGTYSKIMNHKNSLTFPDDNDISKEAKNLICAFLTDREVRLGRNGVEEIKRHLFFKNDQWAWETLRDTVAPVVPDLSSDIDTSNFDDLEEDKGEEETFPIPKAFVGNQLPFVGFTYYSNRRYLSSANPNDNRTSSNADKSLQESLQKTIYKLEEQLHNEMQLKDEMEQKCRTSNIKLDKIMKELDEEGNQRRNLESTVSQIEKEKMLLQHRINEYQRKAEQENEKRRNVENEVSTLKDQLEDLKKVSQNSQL

FAKLAARLYRKALARQLGVAA
Profile-1 @ = 100 µm (kinase profiler assay) (EGFR (h)): 18
Profile-1 @ = 100 µm (kinase profiler assay) (PKA (h)): 76
Profile-1 @ = 100 µm (kinase profiler assay) (ROCK-1 (h)): 25
Profile-1 @ = 100 µm (kinase profiler assay) (MAPKAP-K3 (h)): 10
Profile-1 @ = 100 µm (kinase profiler assay) (PKG1β (h)): 15
Profile-1 @ = 100 µm (kinase profiler assay) (Src(1-530) (h)): 5

— US20090149389A1 (PURDUE RESEARCH FOUNDATION, published 2009)
